Values of other authors as cited in publication PMC2948943.

Target: UmuD (Escherichia coli) (UniProt P0AG11)

Chain of UmuD (P0AG11 25-139): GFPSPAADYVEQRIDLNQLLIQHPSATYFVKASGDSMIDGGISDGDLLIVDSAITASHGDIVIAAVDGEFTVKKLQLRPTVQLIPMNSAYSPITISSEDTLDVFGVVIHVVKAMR

Kd: < 0.01 nM
Substance: UmuD (from UniProt P0AG11)
